One molecule from patent US20240368263A1 (PROMETHEUS BIOSCIENCES, published 2024) can be followed below.

Assay [1] concerns the target TRAIL/TNFSF10 (R&D Systems, cat. no. 375-TL/CF) (UniProt P50591 114-281). In words: ELISA, antigen coated at 1 µg/ml, Fab titrated.
The target of assay [2] is LIGHT/TNFSF14 (R&D Systems, cat. no. 664-LI/CF) (UniProt O43557 74-240). Briefly: ELISA, antigen coated at 1 µg/ml, Fab titrated. For orientation: An ELISA detects its analyte on a solid surface through an enzyme-linked reagent.
Chain of LIGHT/TNFSF14 (R&D Systems, cat. no. 664-LI/CF) (O43557 74-240 limits assumed): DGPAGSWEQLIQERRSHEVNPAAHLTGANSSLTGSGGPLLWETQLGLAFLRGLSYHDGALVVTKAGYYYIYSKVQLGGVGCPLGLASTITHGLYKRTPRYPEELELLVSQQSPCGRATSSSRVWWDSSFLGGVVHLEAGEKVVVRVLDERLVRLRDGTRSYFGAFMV
Assay [3] addresses T1, Fas/TNFSF6 (R&D Systems, cat. no. 126-FL/CF) (UniProt P48023 134-281).
T1 sequence (looked up): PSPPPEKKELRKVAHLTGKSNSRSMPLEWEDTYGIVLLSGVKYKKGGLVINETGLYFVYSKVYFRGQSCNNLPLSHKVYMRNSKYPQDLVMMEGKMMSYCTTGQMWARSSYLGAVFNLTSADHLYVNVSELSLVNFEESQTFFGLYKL
In words: ELISA, antigen coated at 1 µg/ml, Fab titrated.

In assay [4] the target is T2, membrane-associated human TL1A on transfected HEK293 cells (human, UniProt O95150 1-251).
T2 construct: whole, on cells
T2 sequence (looked up): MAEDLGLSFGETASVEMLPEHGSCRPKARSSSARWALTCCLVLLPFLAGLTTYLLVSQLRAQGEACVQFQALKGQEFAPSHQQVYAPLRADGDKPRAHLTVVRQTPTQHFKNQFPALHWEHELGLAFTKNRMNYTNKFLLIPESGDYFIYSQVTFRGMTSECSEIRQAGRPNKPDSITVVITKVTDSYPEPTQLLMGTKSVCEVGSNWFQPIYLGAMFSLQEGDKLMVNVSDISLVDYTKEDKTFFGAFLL
In words: flow cytometry, HEK293 cells transfected with human TL1A. How it is done: All the Fab variants were tested for binding to membrane-associated human TL1A. For these studies a HEK293 cell line that had been transfected with human TL1A was used. The 293 cells expressing membrane bound human TL1A were maintained in DMEM containing L-glutamine, glucose, sodium pyruvate, and phenol red (ThermoFisher cat #11995-065) plus 10% fetal bovine serum, 1X penicillin-streptomycin (Fisher cat #15140122) and 2 μg/ml puromycin (Gibco cat #A11138-03) in a 37° C. incubator with 5% CO2. Three days prior to the assay, a T-75 flask was seeded with 3×10⁶ cells so that the flask was 90-95% confluent on the day of the assay. The media was aspirated and the cell monolayer was gently washed with 5 ml PBS. Adherent cells were removed by repeatedly pipetting 10 ml ice cold 1% BSA/PBS against the monolayer. The cells were counted and 5×10⁵ were aliquoted for each sample to be analyzed. The cells were collected by centrifuging at 300× g at 4° C. for 5 minutes and the wash was discarded. The cells were resuspended in 100 μl Fab or IgG diluted in 1% BSA/PBS and placed on ice for 30 min. Next, the cells were washed with 1 ml 1% BSA/PBS and collected by centrifuging at 300× g at 4° C. for 5 min. The wash was discarded and 100 μl secondary goat F (ab′) 2 anti-human kappa FITC (Southern Biotech cat #2062-02) or goat F (ab′) 2 anti-human IgG PE (Southern Biotech cat #2043-09) conjugate, diluted 1:200 in BSA/PBS was added. Cells were placed on ice for 30 min. Finally, the cells were washed with 1 ml BSA/PBS, collected by centrifuging at 300× g at 4° C. for 5 min. The wash was removed and the cells were resuspended in 500 μl 1% BSA/PBS. One drop of Sytox AADvanced ReadyFlow Reagent (ThermoFisher cat #R37173) was added per sample and the samples were analyzed on the Attune NXT Flow Cytometer (ThermoFisher).
A general note: In flow cytometry, cells or beads pass a laser one at a time.

The target of assay [5] is T3, human TL1A (Fitzgerald, Prod. #30R-AT070) (human, UniProt O95150 72-251, limits assumed, biotinylated with EZ-Link Sulfo-NHS-LC-Biotin where used as soluble antigen).
T3 construct: also called TNFSF15; biotinylated human TL1A
T3 sequence (looked up): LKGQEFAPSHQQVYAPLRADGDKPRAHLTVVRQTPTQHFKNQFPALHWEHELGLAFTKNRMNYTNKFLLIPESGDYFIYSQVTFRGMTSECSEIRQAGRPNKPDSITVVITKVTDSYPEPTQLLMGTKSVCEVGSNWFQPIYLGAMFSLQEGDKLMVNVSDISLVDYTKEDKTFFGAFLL
Briefly: capture lift hit at 15 pM b-TL1A, unmutated sequence.

Chain of TRAIL/TNFSF10 (R&D Systems, cat. no. 375-TL/CF) (P50591 114-281 limits assumed): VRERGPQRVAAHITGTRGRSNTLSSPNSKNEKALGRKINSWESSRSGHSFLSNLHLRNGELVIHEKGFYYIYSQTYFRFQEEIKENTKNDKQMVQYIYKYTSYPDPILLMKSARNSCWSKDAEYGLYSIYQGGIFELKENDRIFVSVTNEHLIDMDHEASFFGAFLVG

B1: Clone L8mod Fab (Fab, V domains shown)
VH: QVQLVQSGAEVKKPGASVKVSCKASGFDIQDTYMHWVRQAPGQGLEWMGRIDPASGHTKYDPKFQGRATITTDTSASTAYLQLSSLRSEDTAVYYCARSGGLPDVWGQGTTVTVSS
VL: EIVLTQSPGTLSLSPGERATLSCRASSSVSYMYWYQQKPGQAPRLLIYATSNLASGIPDRFSGSGSGTDFTLTISRLEPEDFAVYYCQQWSGNPRTFGGGTKLEIK
notes: Fab
In the case of B1, the binding result is reported as “no binding” in assay [1]; “no binding” in assay [2]; “no binding” in assay [3]; “binds” in assay [4]; “binds” in assay [5].
